The record followed here is patent US20230235073A1.

Assay [1] has as its target human CD36 recombinant protein (Sino Biological, reference 10752-H08H) (human) (UniProt P16671). The assay can be described thus: ELISA, plate coated with human CD36, OD630, panel 'Coating: human CD36'. A general note: An ELISA detects its analyte on a solid surface through an enzyme-linked reagent.
Assay [2] has the same target. As to the kind of experiment: SPR Biacore T200, antibody captured on anti-mouse IgA, CD36 analyte, 2-state model. A general note: Surface plasmon resonance follows binding to a sensor surface in real time, without labels.
The target in assay [3] is human CD36 on cells overexpressing human CD36 (human) (UniProt P16671). As to the kind of experiment: FACS on cells overexpressing human CD36, % of Binding.
human CD36 on cells overexpressing human CD36 (human), sequence (P16671 2-472 limits assumed): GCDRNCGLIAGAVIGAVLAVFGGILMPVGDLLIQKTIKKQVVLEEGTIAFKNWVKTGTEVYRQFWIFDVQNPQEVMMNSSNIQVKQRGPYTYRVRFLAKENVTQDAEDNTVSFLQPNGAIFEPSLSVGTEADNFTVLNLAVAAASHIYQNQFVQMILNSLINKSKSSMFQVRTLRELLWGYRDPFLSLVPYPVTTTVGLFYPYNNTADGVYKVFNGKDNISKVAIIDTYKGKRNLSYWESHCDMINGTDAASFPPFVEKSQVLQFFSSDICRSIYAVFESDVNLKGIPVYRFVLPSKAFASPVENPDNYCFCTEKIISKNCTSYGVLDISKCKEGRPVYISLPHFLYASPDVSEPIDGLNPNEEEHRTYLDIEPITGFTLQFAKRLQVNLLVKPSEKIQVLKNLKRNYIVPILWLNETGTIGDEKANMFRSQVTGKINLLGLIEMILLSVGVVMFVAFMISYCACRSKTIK
Assay [4] deals with mouse CD36 recombinant protein (Sino Biological, reference 50422-M08H) (mouse) (UniProt Q08857). The assay can be described thus: ELISA, plate coated with mouse CD36, OD630, panel 'Coating: mouse CD36'.
mouse CD36 recombinant protein (Sino Biological, reference 50422-M08H) (mouse), sequence (Q08857 30-439 limits assumed, stated change not applied): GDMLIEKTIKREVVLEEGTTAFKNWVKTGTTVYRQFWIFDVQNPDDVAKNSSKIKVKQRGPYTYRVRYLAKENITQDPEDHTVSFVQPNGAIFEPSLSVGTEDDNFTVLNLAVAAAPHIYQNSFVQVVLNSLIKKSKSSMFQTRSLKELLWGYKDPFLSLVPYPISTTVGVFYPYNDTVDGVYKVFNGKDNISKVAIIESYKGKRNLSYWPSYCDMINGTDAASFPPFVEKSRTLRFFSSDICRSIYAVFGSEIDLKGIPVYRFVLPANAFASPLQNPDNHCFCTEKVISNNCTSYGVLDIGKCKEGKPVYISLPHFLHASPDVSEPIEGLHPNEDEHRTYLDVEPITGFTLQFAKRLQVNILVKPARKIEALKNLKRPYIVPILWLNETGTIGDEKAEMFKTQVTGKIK
The target of assay [5] is human CD36 recombinant protein (Sino Biological, reference 10752-H08H) (human) (UniProt P16671). The assay can be described thus: SPR Biacore T200, antibody captured on anti-mouse IgA, CD36 analyte, bivalent model.
human CD36 recombinant protein (Sino Biological, reference 10752-H08H) (human), sequence (P16671 30-439 limits assumed): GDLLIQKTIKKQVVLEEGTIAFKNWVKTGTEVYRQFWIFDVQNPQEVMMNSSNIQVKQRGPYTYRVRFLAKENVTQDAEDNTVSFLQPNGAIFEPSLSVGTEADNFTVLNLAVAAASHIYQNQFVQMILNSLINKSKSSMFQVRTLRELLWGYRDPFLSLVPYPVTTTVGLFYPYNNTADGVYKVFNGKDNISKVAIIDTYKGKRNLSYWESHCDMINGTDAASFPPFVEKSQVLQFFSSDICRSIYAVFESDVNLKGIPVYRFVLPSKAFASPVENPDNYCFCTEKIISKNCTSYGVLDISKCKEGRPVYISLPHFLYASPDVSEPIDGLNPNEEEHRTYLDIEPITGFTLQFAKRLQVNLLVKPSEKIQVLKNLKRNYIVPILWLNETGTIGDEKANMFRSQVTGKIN
Assay [6] has the same target. As to the kind of experiment: SPR Biacore T200, antibody captured on anti-mouse IgA, CD36 analyte 3.3-333 nM, 1-to-1 model.

As a reminder, the EC50 (read off the curve) is the concentration needed to bring the measured effect to its halfway point. A word on the Kd: it is a measure of binding affinity in units of concentration. One may read the koff as the first-order rate constant of dissociation. One may read the kon as a measure of how fast the partners come together. With “commercial neutralizing monoclonal anti-CD36 antibody JC63.1 (CAYMAN, CAY-10009893-500)”, the EC50 (read off the curve) in assay [1] lay within 1 to 2 nM. Also, in assay [2], the Kd stood at 7.61 nM, the ka1 stood at 86900 M⁻¹ s⁻¹, the ka2 amounted to 0.000572 s⁻¹ and the kd1 is 0.0018 s⁻¹. Besides, in assay [2], the kd2 was found to be 0.000332 s⁻¹. The substance also displayed an EC50 (read off the curve) in assay [3] of 0.03 nM. Moreover, in assay [4], the EC50 (read off the curve) was determined as 1 nM. In assay [5], the KD1 worked out at 76.5 nM, the KD2 is 956 nM, the ka1 is 27200 M⁻¹ s⁻¹ and the ka1 (second column so headed) came out at 413 M⁻¹ s⁻¹. Further, in assay [5], the ka2 was 5.5e-05 1/RUs, the kd1 amounted to 0.00206 s⁻¹ and the kd2 worked out at 0.000399 s⁻¹. Also, in assay [6], the Kd is 4.71 nM, the koff amounted to 0.00196 s⁻¹ and the kon was determined as 418000 M⁻¹ s⁻¹.
